Assay results taken from patent US20030059429A1 (published 2003).

T1: human IL-4 (human, UniProt P05112 25-153)
T1 sequence (looked up): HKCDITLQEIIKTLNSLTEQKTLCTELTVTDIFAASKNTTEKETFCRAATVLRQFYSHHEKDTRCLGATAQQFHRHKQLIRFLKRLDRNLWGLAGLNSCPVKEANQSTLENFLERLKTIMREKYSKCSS

T2: human M-CSF (human, UniProt P09603 33-190, limits assumed)
T2 sequence (looked up): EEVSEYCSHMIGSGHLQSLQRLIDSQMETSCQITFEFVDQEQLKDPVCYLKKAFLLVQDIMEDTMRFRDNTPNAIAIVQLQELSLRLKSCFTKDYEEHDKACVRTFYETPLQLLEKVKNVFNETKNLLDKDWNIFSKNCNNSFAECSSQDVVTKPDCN

T3: human IL-1α (human, UniProt P01583 113-271)
T3 sequence (looked up): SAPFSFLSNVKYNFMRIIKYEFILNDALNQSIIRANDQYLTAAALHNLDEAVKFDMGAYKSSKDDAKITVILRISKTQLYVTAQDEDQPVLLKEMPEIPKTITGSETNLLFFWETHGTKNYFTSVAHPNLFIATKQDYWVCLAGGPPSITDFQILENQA


What was measured:
Recombinant human IL-5 [1] = target: T4, Recombinant human IL-5 (human, UniProt P05113 20-134, 125I label (Bolton-Hunter reagent) in the receptor binding inhibition assay and the colony lifts; residues not stated); assay: inhibition of 125I-IL-5 binding to IL-5R(α chain) from Drosophila membranes
T4 construct: also called human interleukin-5; hIL-5

human IL-8 = human IL-8 (human, UniProt P10145 28-99, limits assumed); assay: ELISA, supernatants of the cloned lines
human IL-4 = target: T1, human IL-4; assay: ELISA, supernatants of the cloned lines
human TGFα = human TGFα (human, UniProt P01135 40-89); assay: ELISA, supernatants of the cloned lines
human IL-1β = human IL-1β (human, UniProt P01584 117-269); assay: ELISA, supernatants of the cloned lines
human M-CSF = target: T2, human M-CSF; assay: ELISA, supernatants of the cloned lines
human IL-1α = target: T3, human IL-1α; assay: ELISA, supernatants of the cloned lines
Recombinant human IL-5 [2] = target: T4, Recombinant human IL-5; assay: cell-based or functional assay
Recombinant human IL-5 [3] = target: T4, Recombinant human IL-5; assay: cell-based or functional assay; remark: listed apart in the source
Recombinant human IL-5 [4] = target: T4, Recombinant human IL-5; assay: optical biosensor (BIAcore), immobilized hIL-5, 25° C.
Recombinant human IL-5 [5] = target: T4, Recombinant human IL-5; assay: colony lift assay with iodinated IL-5, chain shuffled library

Binder | IC50 (Recombinant human IL-5 [1]) | binding result (human IL-8) | binding result (human IL-4) | binding result (human TGFα) | binding result (human IL-1β) | binding result (human M-CSF) | binding result (human IL-1α) | inhibition of proliferation of murine B13 cells (Recombinant human IL-5 [2]) | 100% Inhibition (pM), B13 cell proliferation (Recombinant human IL-5 [3]) | Proliferation IC50 (pM), B13 cells (Recombinant human IL-5 [3]) | Kd (Recombinant human IL-5 [4]) | binding result (Recombinant human IL-5 [5])
murine monoclonal antibody 2B6 (antibody, IgG1, V domains shown, also called mAb 2B6; murine 2B6) VH: QVQLKESGPGLVAPSQSLSITCTVSGFSLTSYSVHWVRQPPGKGLEWLGVIWASGGTDYNSALMSRLSISKDNSKSQVFLKLNSLQTDDTAMYYCARDPPSSLLRLDYWGQGTTLTVSS VL: DIVMTQSPSSLSVSAGEKVTMSCKSSQSLLNSGNQKNYLAWYQQKPGQPPKLLIYGASTRESGVPDRFTGSGSGTDFTLSISSVQAEDLAVYYCQNVHSFPFTFGSGTELEIK | 1 nM | no binding | no binding | no binding | no binding | no binding | no binding | > 70% | 200 pM | 70 pM | 0.022 nM | 
murine monoclonal antibody 2E3 (antibody, IgG2a, V domains shown, also called mAb 2E3; hybridoma SK119-2E3.39.40.2) VH: PGLVAPSQSLSITCTVSGFSLTSYSVHWVRQPPGKGLEWLGVIWASGGTDYNSALMSRLSISKDNSKSQVFLKLNSLQTDDAAMYYCARDPPFSLLRLDFWGQGTTLTVSS VL: SSLSVSAGEKVTMSCKSSQSLLNSGNQKNYLAWYQQKPGQPPKLLIYGASTRESGVPDRFTGSGSGTDFTLTISSVQAEDLAVYYCQNDHSFPFTFGSGTELEIK | 1 nM | no binding | no binding | no binding | no binding | no binding | no binding | > 70% | 600 pM | 90 pM | 0.02 nM | 

Next, values leading:

IC50 (Recombinant human IL-5 [1]) | binding result (human IL-8) | binding result (human IL-4) | binding result (human TGFα) | binding result (human IL-1β) | binding result (human M-CSF) | binding result (human IL-1α) | inhibition of proliferation of murine B13 cells (Recombinant human IL-5 [2]) | 100% Inhibition (pM), B13 cell proliferation (Recombinant human IL-5 [3]) | Proliferation IC50 (pM), B13 cells (Recombinant human IL-5 [3]) | Kd (Recombinant human IL-5 [4]) | binding result (Recombinant human IL-5 [5]) | Binder
 |  |  |  |  |  |  |  |  |  |  | binds | Fab 15 from the chain-shuffled library (2B6 Fd with a library light chain) (Fab, V domains shown, not shown: constant part of the murine 2B6 Fd (CH1) and any tag from pMKFabGene3H) VH: QVQLKESGPGLVAPSQSLSITCTVSGFSLTSYSVHWVRQPPGKGLEWLGVIWASGGTDYNSALMSRLSISKDNSKSQVFLKLNSLQTDDTAMYYCARDPPSSLLRLDYWGQGTTLTVSS VL: ELVMTQSPSSLSVSAGEKVTMSCKSSQSLLNSGNQKNYLAWYQQKPGQPPKLLIYGASTRESGVPDRFTGSGSGTDFTLTISSVQAEDLAVYYCQNDYSYPFTFGSGTKLEIK
 |  |  |  |  |  |  |  |  |  |  | binds | Fab 2 from the chain-shuffled library (2B6 Fd with a library light chain) (Fab, V domains shown, not shown: constant part of the murine 2B6 Fd (CH1) and any tag from pMKFabGene3H) VH: QVQLKESGPGLVAPSQSLSITCTVSGFSLTSYSVHWVRQPPGKGLEWLGVIWASGGTDYNSALMSRLSISKDNSKSQVFLKLNSLQTDDTAMYYCARDPPSSLLRLDYWGQGTTLTVSS VL: ELVMTQSPSSLSVSAGEKVTMSCKSSQSLLNSGNQKNYLAWYQQKPGQPPKLLIYGASTRESGVPDRFTGSGSGTDFTLTISSVQAEDLAVYYCQNDHSYPFTFGSGTKLEIK
1 nM | no binding | no binding | no binding | no binding | no binding | no binding | > 70% | 340 pM | 150 pM | 0.013 nM |  | murine monoclonal antibody 2F2 (antibody, V domains shown, also called mAb 2F2; hybridoma SK119-2F2.37.80.12) VH: PGLVAPSQSLSITCTVSGFSLTSYSVHWVRQPPGKGLEWLGVIWASGGTDYNSALMSRLSISKDNSKSQVFLKLNSLRTDDTAMYYCARDPPSSLLRLDYWGQGTTLTVSS VL: SSLSVSAGEKVTMSCKSSQSLLNSGNQKNYLAWYQQKPGQPPKLLIYGASTRESGVPDRFTGSGSGTDFTLTISSVQAEDLAVYYCQNDHSFPFTFGSGTELEIK
